From patent CN114349858A (YOUMALI WUHAN BIOTECHNOLOGY CO LTD, dated 2022)

Target: T1, 重组人IL-10蛋白 (human, UniProt P22301 19-178)
T1 construct: The construct used in the Biacore and ELISA assays is only called recombinant human IL-10 protein; also called 人白介素-10; 重组表达的人白介素-10
Assay: SPR, Biacore 3000; antibody immobilised on CM5 chip, recombinant human IL-10 at 20, 12.3, 4.1, 1.37 and 0.46 nM

T1 sequence (P22301 19-178 limits assumed): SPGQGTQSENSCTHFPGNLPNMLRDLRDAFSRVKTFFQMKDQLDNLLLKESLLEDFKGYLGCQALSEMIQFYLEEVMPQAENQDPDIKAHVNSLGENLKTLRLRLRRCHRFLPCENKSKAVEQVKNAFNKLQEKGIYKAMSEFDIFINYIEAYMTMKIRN

B1: 抗人IL-10兔单克隆抗体B (antibody, V domains shown)
VH: QSLEESGGDLVKPGASLTLTCTASGFSFSGSYGICWVRQAPGKGLEWIACIVTSSGTTYYASWAKGRFTISKTSSTTVTLQMTSLTAADTATYFCARDLLAYYTGNLWGPGTLVTVSS
VL: ALVMTQTPASVEAAVGGTVTINCQASQSISNELSWYQQKPGQRPELLIYGASRLESGVPSRFSGSGSGTEFTLTISDLECDDAATYYCQSAYYSSSVDIYNTFGGGTEVVVKG
notes: Used biotin-labelled as the detection antibody in the sandwich ELISA; also called B抗体; 兔抗人IL-10单克隆抗体B
Kd: 9.68 pM
